No end group written: not given here.

Sequences and labels used below:
T1: NRP1‐b1 binding to VEGF‐B167 (Homo sapiens, UniProt O14786)
T1 construct: poly-histidine (TEV-cleavable) (cleaved yes); made in house; host or cells: E. coli Rosetta (DE3) (NRP1-b1 only)
T1 sequence (O14786 275-424 limits assumed): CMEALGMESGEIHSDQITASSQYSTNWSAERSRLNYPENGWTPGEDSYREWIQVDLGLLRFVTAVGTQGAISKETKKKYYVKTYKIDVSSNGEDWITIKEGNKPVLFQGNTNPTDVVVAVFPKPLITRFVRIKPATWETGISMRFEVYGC

T2: NRP1‐b1 binding to VEGF‐A165 (Homo sapiens, UniProt O14786)
T2 construct: poly-histidine (TEV-cleavable) (cleaved yes); made in house; host or cells: E. coli Rosetta (DE3) (NRP1-b1 only)
T2 sequence (O14786 275-424 limits assumed): T1 sequence (O14786 275-424 limits assumed)

T3: NRP1‐b1 (Homo sapiens, UniProt O14786)
T3 construct: the immobilized b1 domain of NRP1 (NRP1‐b1); poly-histidine (TEV-cleavable) (cleaved yes); made in house; host or cells: E. coli Rosetta (DE3)
T3 sequence (O14786 275-424 limits assumed): T1 sequence (O14786 275-424 limits assumed)

T4: VEGF‐B167 (human, UniProt P49765-2 22-188)
T4 construct: vascular endothelial growth factor B, isoform VEGF-B167, human
T4 sequence (looked up): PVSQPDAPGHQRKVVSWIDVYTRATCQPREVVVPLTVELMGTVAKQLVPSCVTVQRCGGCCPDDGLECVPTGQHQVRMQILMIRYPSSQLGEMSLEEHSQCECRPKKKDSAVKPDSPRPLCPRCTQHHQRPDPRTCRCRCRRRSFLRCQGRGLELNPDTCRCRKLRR

B1: MGC0124 (peptide)
chain: SCKNTDSRCKARQLELNERTCRCDKPRR
modifications: disulfide (positions not given here); not fully specified (N-terminus); also: cyclised by disulphide, Cys pairing not given here
B2: VEGF‐B167: Vascular endothelial growth factor B isoform 167, immobilised on the sensor chip (protein)
chain: T4 sequence (looked up)
B3: b1 domain of neuropilin‐1 (NRP1‐b1) (domain or fragment, human)
chain: FKCMEALGMESGEIHSDQITASSQYSTNWSAERSRLNYPENGWTPGEDSYREWIQVDLGLLRFVTAVGTQGAISKETKKKYYVKTYKIDVSSNGEDWITIKEGNKPVLFQGNTNPTDVVVAVFPKPLITRFVRIKPATWETGISMRFEVYGCKIT
notes: neuropilin-1, human, b1 domain; also called NRP1‐b1 domain; NRP1 b1 domain; source: E. coli Rosetta (DE3), purified (HisTrap, TEV cleavage, Superdex 75, SP FF ion exchange)

Assay [1] concerns the target T1, NRP1‐b1 binding to VEGF‐B167. In words: SPR EG01377 competition assay, NRP1-b1 binding to immobilised VEGF-B167. The note with it: NRP1-b1 5 μM, EG01377 6.25 to 50 μM, 60 s. The text has this:
(§1) We have previously reported the use of SPR to characterise the interaction between the immobilized b1 domain of NRP1 (NRP1‐b1) and VEGF‐A‐derived peptides,[23] arginine analogues,[26] and small molecules.[27, 28] When we attempted to measure the binding affinity of VEGF‐B isoforms to immobilized NRP1‐b1 we observed non‐saturable binding responses. Increasing concentrations of VEGF‐B over immobilised NRP1 led to response units (RU) higher than the theoretical maximum for a 1 : 1 interaction. The shape of the curves remained consistent at low and high concentration and was not typical of sample precipitation (fuzzy heterogeneous curves, commonly observed only at higher concentrations). […] We consider that the observations are consistent with oligomerization as a form of non‐specific binding. […] To circumvent this, we immobilized VEGF‐B167 and VEGF‐A165 (Figure 2) onto a sensor chip and measured the binding of NRP1‐b1 domain in solution. Using this method, the binding affinity of NRP1‐b1 to immobilized VEGF‐A165 was 100‐fold lower than previously observed when the interaction was measured in reverse experimental configuration.[23] […] We then sought to investigate if binding could be blocked by a known inhibitor of the VEGF‐A interaction with NRP1‐b1. […]

In assay [2] the target is T2, NRP1‐b1 binding to VEGF‐A165. In words: SPR EG01377 competition assay, NRP1-b1 binding to immobilised VEGF-A165. The note with it: NRP1-b1 5 μM, EG01377 1.25 to 10 μM, 60 s.
From the text: as §1

The test system of the next assay is VEGFs. Briefly: SPR direct binding of EG01377 to immobilised VEGFs. Also noted: species or system human. As to conditions: immobilised VEGF-A165 and VEGF-B167.
From the text: as §1

In a further assay the target is T3, NRP1‐b1. In words: SPR binding of NRP1-b1 in solution to immobilised VEGFs. The note with it: VEGF immobilised on CM5 chip, NRP1-b1 0.25 to 64 μM in PBS, 60 s, steady-state, 1:1 interaction, 25 °C, read-out: KD of NRP1‐b1 for immobilized VEGF. The text has this:
We have previously reported the use of SPR to characterise the interaction between the immobilized b1 domain of NRP1 (NRP1‐b1) and VEGF‐A‐derived peptides,[23] arginine analogues,[26] and small molecules.[27, 28] When we attempted to measure the binding affinity of VEGF‐B isoforms to immobilized NRP1‐b1 we observed non‐saturable binding responses. Increasing concentrations of VEGF‐B over immobilised NRP1 led to response units (RU) higher than the theoretical maximum for a 1 : 1 interaction. The shape of the curves remained consistent at low and high concentration and was not typical of sample precipitation (fuzzy heterogeneous curves, commonly observed only at higher concentrations). […] We consider that the observations are consistent with oligomerization as a form of non‐specific binding. […] To circumvent this, we immobilized VEGF‐B167 and VEGF‐A165 (Figure 2) onto a sensor chip and measured the binding of NRP1‐b1 domain in solution. Using this method, the binding affinity of NRP1‐b1 to immobilized VEGF‐A165 was 100‐fold lower than previously observed when the interaction was measured in reverse experimental configuration.[23] […]
Binding of NRP1‐b1 to VEGFs: Dose responses were obtained by injecting NRP1‐b1 in PBS over the immobilized VEGFs for 60 s, using two‐fold dilutions from 64 to 0.25 μM. Steady‐state binding affinities were calculated assuming a 1 : 1 interaction.
(In general: SPR reads the build-up and loss of mass on a sensor chip optically.)

Assay [3] deals with B3. Briefly: SPR; NRP1-b1 immobilised on a CM5 chip by random amine coupling; peptides injected for 60 s, 120 or 180 s dissociation; 25 °C; regeneration with 1 M NaCl; kinetic fit, 1:1 model (MGC0122, MGC0123, MGC0124) or two-state model (MGC0171, MGC0172, MGC0173, MGC0174). The note with it: both partners purified.
A further assay addresses T5, VEGF‐A165 (human, UniProt P15692-4 1-191).
T5 construct: vascular endothelial growth factor A, isoform VEGF-A165, human
In words: SPR; VEGF-A165 and VEGF-B167 immobilised on a CM5 chip by random amine coupling; NRP1-b1 in PBS injected for 60 s, two-fold dilutions from 64 to 0.25 μM; 25 °C; steady-state affinity assuming a 1:1 interaction. As to conditions: both partners purified.

Another assay concerns the target T4, VEGF‐B167. Described as above. The note with it: both partners purified.

T5 sequence (P15692 other isoform, or with tags, fused parts or gaps): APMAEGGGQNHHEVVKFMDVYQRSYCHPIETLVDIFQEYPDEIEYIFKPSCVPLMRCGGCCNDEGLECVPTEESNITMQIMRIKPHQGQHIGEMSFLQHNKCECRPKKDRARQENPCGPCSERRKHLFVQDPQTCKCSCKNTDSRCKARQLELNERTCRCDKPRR

With `NCc1ccc(-c2cc3c(c(S(=O)(=O)Nc4ccsc4C(=O)N[C@@H](CCCN=C(N)N)C(=O)O)c2)OCC3)cc1` [EG01377], the “Effect on binding of NRP1‐b1 to immobilised VEGF‐B167” value in assay [1] is given as “reduced the binding”. Further, in assay [2], the “Effect on binding of NRP1‐b1 to immobilised VEGF‐A165” value was “reduced the binding”. Further, the “Binding to VEGFs” value in the assay with VEGFs is recorded as “No binding was observed”. The term Kd denotes the free concentration of one partner at which half of the binding sites on the other are occupied at equilibrium, for simple one-to-one binding. Take “VEGF‐A165: Vascular endothelial growth factor A isoform 165, immobilised on the sensor chip”: in the assay with NRP1‐b1, the Kd came to 9 µM. For B1, the Kd in assay [3] was 3.33 ± 0.1 µM.

Consider B2, for which, in the assay with NRP1‐b1, the Kd came to 36 µM. Regarding B3, the Kd with VEGF‐A165 turned out to be 9 µM; in the assay with VEGF‐B167, 36 µM.
